# Measured values: patent US11473073B2, “Aminopeptidases for protein hydrolyzates” (DUPONT NUTRITION BIOSCIENCES APS, priority 2015, dated 2022)
# Legend:
# Assay type in all cases: biochemical
# gluten = experiment: Degree of hydrolysis of pre-hydrolysed gluten; conditions: 50° C., 20 hr
# Procedure: (§1) The degree of hydrolyses (DH) describes the relative amount of cleaved peptides bounds compared to an acid hydrolyses of the same amount of protein conducted e.g. in 6 M HCL at ˜120° C. for ˜24 h. The higher the DH can therefore be applied to assess the efficiency of amino acid liberation of a general PepN such as a PepN 1 or a PepN 2 type. The cell free culture broth was concentrated (10 kDa cut-off, Sartorius, Göttingen, Germany) and desalted applying a disposal desalting column (PD10, GE, Munchen, Germany) as described by the manufacturer. As substrates were pre-hydrolysed 10% (w/w) Na-caseinate (DMK, Germany), whey protein isolate (WPI; Arla, Viby, Denmark), soy protein isolate (SPI; SUPRO® 760, DuPont, Brabrand, Denmark) and gluten suspensions were applied. The pre-hydrolysis was conducted with 1% (w/wprotein) of FOODPRO® Alkaline Protease, 1% (w/wprotein) FOODPRO® PNL for the Na-Caseinate, the WPI as well as the SPI suspension. All pre-hydrolyses were conducted at 55° C. for 18 h followed by an inactivation step at 95° C. for 20 min. Each applied PepN 2 has been inactivated at 95 C for 15 min as a control of the elimination of any carryover of amino acids from the culture broth to the final hydrolyses as well as for the sufficient inactivation of the applied endopeptidases. The hydrolyses were conducted in a 96-well micro titer plate format and consisted of 150 μL of the pre-hydrolyzed protein suspension combined with 50 μL of a PepN 2 stock solution as indicated in Table 1 below. The hydrolyses were conducted at 50° C. for 20 hr, subsequently, the hydrolysis were stopped by the addition of 20 μL 2 M TCA (Trichloroacetic acid, Sigma-Aldrich, Schnelldorf, Germany). The efficiency of the amino acid liberation of the PepN 2 types from Neosartorya fischeri and Aspergillus clavatus can be seen in Table 1 (B) and (A). […] For the gluten hydrolyses, an increased DH was noticed in the protein range from 0.02-0.3 mg/mL PepN 2.
# [1] = system: soy protein isolate (SPI); experiment: Degree of hydrolysis of pre-hydrolysed soy protein isolate; conditions: 50° C., 20 hr
# Procedure: as §1
# [2] = system: peptide WHWLQLKPGQPMY (SEQ ID NO:26); experiment: Hydrolysis of proline containing peptide, LC-MS; conditions: peptide 1 mg/mL, aminopeptidase 1 ug/mL, CPB-Buffer, 55° C.; FIG. 5-7
# Procedure: The peptide […] (SEQ ID NO:26) was hydrolysed with TRI03 and TRI035. The peptide (1 mg/mL) was incubated with 1 ug/mL of the aminopeptidase in 20 mM CPB-Buffer (20 mM Citric acid, 20 mM Phosphate. 20 mM Boric acid) at 55° C. Aliquots (50 μL) were stopped with 50 rel 5% TFA at the indicated time points and subjected to LC-MS analysis.
# Capillary LC-MS/MS analyses were performed using an Agilent 1100 LC system (Agilent Technologies) interfaced to a LTQ Orbitrap Classic hybrid mass spectrometer (Thermo Scientific, Bremen, Germany). Samples were loaded onto a 15 cm Phenomenix Jupiter 4μ Proteo 90A, C4 analytical column. Separation was performed at a flow rate of 16 μL/min using a 10 min gradient of 0-40% Solvent B H2O/CH3CN/HCOOH (50/950/0.65 v/v/v) into the IONMAX® ion source (Thermo Scientific, San Jose). The LTQ Orbitrap Classic instrument was operated in a data-dependent MS/MS mode. The peptide masses were measured by the Orbitrap (MS scans were obtained with a resolution of 60 000 at m/z 400), and up to 2 of the most intense peptide m/z were selected and subjected to fragmentation using CID in the linear ion trap (LTQ). Dynamic exclusion was enabled with a list size of 500 masses, duration of 40 s, and an exclusion mass width of ±10 ppm relative to masses on the list.
# The RAW files were accessed with the program Skyline 2.6.0.7176 (MacLean, B., et al., “Skyline: an open source document editor for creating and analyzing targeted proteomics experiments”, Bioinformatics, 2010, 26(7): p. 966-8) which uses the MS1 intensities to build chromatograms (Schilling, B., et al., “Platform-independent and label-free quantitation of proteomic data using MS1 extracted ion chromatograms in skyline: application to protein acetylation and phosphorylation”, Mol Cell Proteomics, 2012. 11(5): p. 202-14). The precursor isotopic import filter was set to a count of three, (M, M+1, and M+2) at a resolution of 60,000 and the most intense charge state was used. Peptide sequences of the substrate as well as cleavage products were typed into Skyline and intensities were calculated in each sample. […]
# [3] = system: whey protein isolate (WPI); experiment: Degree of hydrolysis of pre-hydrolysed whey protein isolate; conditions: 50° C., 20 hr
# Procedure: as §1
# Na-caseinate = experiment: Degree of hydrolysis of pre-hydrolysed Na-caseinate; conditions: Casein, 50° C., 20 hr
# Procedure: as §1
# [4] = Product inhibition of H-Ala-pNA hydrolysis by amino acid inhibitor mix; conditions: pH 9.0, 30° C.
# Procedure: Sigma cat # D2650). […] […] and proline were dissolved in DMSO. All other amino acids were dissolved in buffer. […] The reaction was started by adding 20 μL substrate. Only one substrate concentration was used per plate.
# [5] = inactivated enzyme at the highest conc.
molecule,measurement,setting,value
"TRI031: fungal aminopeptidase type-2 (pepN_2), NCBI XP_001258675 from Neosartorya fischeri NRRL 181, expressed in Trichoderma reesei (protein, Synthetic peptide with leader sequence, fungal aminopeptidase type-2 (pepN_2), NCBI XP_001258675 from Neosartorya fischeri NRRL 181, expressed in Trichoderma reesei) MQTFGAFLVSFLAASGLAAANGPGWDWKPPVHPKVLPQMIHLWDLMHGAQKLEDFAYAYPERNRVFGGPAHEDTVNYLYRELKKTGYYDVYKQPQVHQWTRADQALTVDGKSYVATTMTYSPSVNVTAPLAVVNNLGCVESDYPADLKGKIALVSRGECPFATKSVLSAKAGAAAALVYNNIEGSMAGTLGGPTSELGPYAPIAGISLADGQALIQMIQAGTVTANLWIDSKVENRTTYNVIAQTKGGDPNNVVALGGHTDSVEAGPGINDDGSGIISNLVVAKALTRFSVKNAVRFCFWTAEEFGLLGSSYYVNSLNATEKAKIRLYLNFDMIASPNYALMIYDGDGSAFNLTGPAGSAQIERLFEDYYKSIRKPFVPTEFNGRSDYEAFILNGIPAGGIFTGAEAIKTEEQAKLFGGQAGVALDANYHAKGDNMTNLNREAFLINSKATAFAVATYANSLDSIPSRNMSTVVKRSQLEQAKKSTPHTHTGGTGCYKDRVEQ",Degree of hydrolysis,gluten; PepN 2 stock 0.02 mg/mL,10%
same,Degree of hydrolysis,gluten; PepN 2 stock 0.03 mg/mL,13%
same,Degree of hydrolysis,gluten; PepN 2 stock 0.04 mg/mL,15%
same,Degree of hydrolysis,gluten; PepN 2 stock 0.05 mg/mL,14%
same,Degree of hydrolysis,gluten; PepN 2 stock 0.1 mg/mL,17%
same,Degree of hydrolysis,gluten; PepN 2 stock 0.15 mg/mL,18%
same,Degree of hydrolysis,gluten; PepN 2 stock 0.2 mg/mL,19%
same,Degree of hydrolysis,gluten; PepN 2 stock 0.25 mg/mL,19%
same,Degree of hydrolysis,gluten; PepN 2 stock 0.3 mg/mL,21%
same,Degree of hydrolysis,gluten; PepN 2 stock 0.35 mg/mL,20%
same,Degree of hydrolysis,gluten; [5],4%
same,Degree of hydrolysis,[1]; PepN 2 stock 0.02 mg/mL,11%
same,Degree of hydrolysis,[1]; PepN 2 stock 0.03 mg/mL,13%
same,Degree of hydrolysis,[1]; PepN 2 stock 0.04 mg/mL,14%
same,Degree of hydrolysis,[1]; PepN 2 stock 0.05 mg/mL,15%
same,Degree of hydrolysis,[1]; PepN 2 stock 0.1 mg/mL,17%
same,Degree of hydrolysis,[1]; PepN 2 stock 0.15 mg/mL,18%
same,Degree of hydrolysis,[1]; PepN 2 stock 0.2 mg/mL,19%
same,Degree of hydrolysis,[1]; PepN 2 stock 0.25 mg/mL,19%
same,Degree of hydrolysis,[1]; PepN 2 stock 0.3 mg/mL,19%
same,Degree of hydrolysis,[1]; PepN 2 stock 0.35 mg/mL,22%
same,Degree of hydrolysis,[1]; [5],6%
same,hydrolysis of WHWLQLKPGQPMY to KPGQPMY and further down to QPMY,[2],can hydrolyze
same,Degree of hydrolysis,[3]; PepN 2 stock 0.02 mg/mL,17%
same,Degree of hydrolysis,[3]; PepN 2 stock 0.03 mg/mL,19%
same,Degree of hydrolysis,[3]; PepN 2 stock 0.04 mg/mL,19%
same,Degree of hydrolysis,[3]; PepN 2 stock 0.05 mg/mL,21%
same,Degree of hydrolysis,[3]; PepN 2 stock 0.1 mg/mL,23%
same,Degree of hydrolysis,[3]; PepN 2 stock 0.15 mg/mL,28%
same,Degree of hydrolysis,[3]; PepN 2 stock 0.2 mg/mL,24%
same,Degree of hydrolysis,[3]; PepN 2 stock 0.25 mg/mL,26%
same,Degree of hydrolysis,[3]; PepN 2 stock 0.3 mg/mL,27%
same,Degree of hydrolysis,[3]; PepN 2 stock 0.35 mg/mL,29%
same,Degree of hydrolysis,[3]; [5],8%
same,Degree of hydrolysis,Na-caseinate; PepN 2 stock 0.02 mg/mL,14%
same,Degree of hydrolysis,Na-caseinate; PepN 2 stock 0.03 mg/mL,15%
same,Degree of hydrolysis,Na-caseinate; PepN 2 stock 0.04 mg/mL,16%
same,Degree of hydrolysis,Na-caseinate; PepN 2 stock 0.05 mg/mL,20%
same,Degree of hydrolysis,Na-caseinate; PepN 2 stock 0.1 mg/mL,19%
same,Degree of hydrolysis,Na-caseinate; PepN 2 stock 0.15 mg/mL,21%
same,Degree of hydrolysis,Na-caseinate; PepN 2 stock 0.2 mg/mL,23%
same,Degree of hydrolysis,Na-caseinate; PepN 2 stock 0.25 mg/mL,22%
same,Degree of hydrolysis,Na-caseinate; PepN 2 stock 0.3 mg/mL,24%
same,Degree of hydrolysis,Na-caseinate; PepN 2 stock 0.35 mg/mL,24%
same,Degree of hydrolysis,Na-caseinate; [5],8%
same,product inhibition compared to TRI063 from A. oryzae,[4],less inhibited by product
"TRI035: fungal aminopeptidase type-2 (pepN_2), NCBI XP_001273779 from Aspergillus clavatus NRRL 1 (protein, Synthetic peptide with leader sequence) MQTFGAFLVSFLAASGLAAANAPGGPGGHGRKLPVNPKTFPNEIRLKDLLHGSQKLEDFAYAYPERNRVFGGQAHLDTVNYLYRELKKTGYYDVYKQPQVHQWTRADQSLTLGGDSIQASTMTYSPSVNVTAPLSLVSKLGCAEGDYSADVKGKIALVSRGECSFAQKSVLSAKAGAVATIVYNNVDGSLAGTLGGATSELGPYSPIIGITLAAGQDLVARLQAAPTEVSLWIDSKVENRTTYNVIAQTKGGDPNNVVALGGHTDSVENGPGINDDGSGVISNLVVAKALTRYSVKNAVRFCFWTAEEFGLLGSNYYVDNLSPAELAKIRLYLNFDMIASPNYALMIYDGDGSAFNLTGPPGSAQIESLFENYYKSIKQGFVPTAFDGRSDYEGFILKGIPAGGVFTGAESLKTEEQARLFGGQAGVALDANYHAKGDNMTNLNHKAFLINSRATAFAVATYANNLSSIPPRNATVVKRESMKWTKREEPHTHGADTGCFASRVKE",Degree of hydrolysis,gluten; PepN 2 stock 0.02 mg/mL,12%
same,Degree of hydrolysis,gluten; PepN 2 stock 0.03 mg/mL,14%
same,Degree of hydrolysis,gluten; PepN 2 stock 0.04 mg/mL,15%
same,Degree of hydrolysis,gluten; PepN 2 stock 0.05 mg/mL,15%
same,Degree of hydrolysis,gluten; PepN 2 stock 0.1 mg/mL,17%
same,Degree of hydrolysis,gluten; PepN 2 stock 0.15 mg/mL,18%
same,Degree of hydrolysis,gluten; PepN 2 stock 0.2 mg/mL,17%
same,Degree of hydrolysis,gluten; PepN 2 stock 0.25 mg/mL,19%
same,Degree of hydrolysis,gluten; PepN 2 stock 0.3 mg/mL,19%
same,Degree of hydrolysis,gluten; PepN 2 stock 0.35 mg/mL,22%
same,Degree of hydrolysis,gluten; [5],4%
same,Degree of hydrolysis,[1]; PepN 2 stock 0.02 mg/mL,11%
same,Degree of hydrolysis,[1]; PepN 2 stock 0.03 mg/mL,12%
same,Degree of hydrolysis,[1]; PepN 2 stock 0.04 mg/mL,13%
same,Degree of hydrolysis,[1]; PepN 2 stock 0.05 mg/mL,14%
same,Degree of hydrolysis,[1]; PepN 2 stock 0.1 mg/mL,16%
same,Degree of hydrolysis,[1]; PepN 2 stock 0.15 mg/mL,15%
same,Degree of hydrolysis,[1]; PepN 2 stock 0.2 mg/mL,17%
same,Degree of hydrolysis,[1]; PepN 2 stock 0.25 mg/mL,21%
same,Degree of hydrolysis,[1]; PepN 2 stock 0.3 mg/mL,21%
same,Degree of hydrolysis,[1]; PepN 2 stock 0.35 mg/mL,21%
same,Degree of hydrolysis,[1]; [5],6%
same,hydrolysis of WHWLQLKPGQPMY to KPGQPMY and further down to QPMY,[2],can hydrolyze
same,Degree of hydrolysis,[3]; PepN 2 stock 0.02 mg/mL,19%
same,Degree of hydrolysis,[3]; PepN 2 stock 0.03 mg/mL,20%
same,Degree of hydrolysis,[3]; PepN 2 stock 0.04 mg/mL,21%
same,Degree of hydrolysis,[3]; PepN 2 stock 0.05 mg/mL,22%
same,Degree of hydrolysis,[3]; PepN 2 stock 0.1 mg/mL,23%
same,Degree of hydrolysis,[3]; PepN 2 stock 0.15 mg/mL,27%
same,Degree of hydrolysis,[3]; PepN 2 stock 0.2 mg/mL,25%
same,Degree of hydrolysis,[3]; PepN 2 stock 0.25 mg/mL,28%
same,Degree of hydrolysis,[3]; PepN 2 stock 0.3 mg/mL,29%
same,Degree of hydrolysis,[3]; PepN 2 stock 0.35 mg/mL,29%
same,Degree of hydrolysis,[3]; [5],8%
same,Degree of hydrolysis,Na-caseinate; PepN 2 stock 0.02 mg/mL,16%
same,Degree of hydrolysis,Na-caseinate; PepN 2 stock 0.03 mg/mL,19%
same,Degree of hydrolysis,Na-caseinate; PepN 2 stock 0.04 mg/mL,19%
same,Degree of hydrolysis,Na-caseinate; PepN 2 stock 0.05 mg/mL,20%
same,Degree of hydrolysis,Na-caseinate; PepN 2 stock 0.1 mg/mL,21%
same,Degree of hydrolysis,Na-caseinate; PepN 2 stock 0.15 mg/mL,23%
same,Degree of hydrolysis,Na-caseinate; PepN 2 stock 0.2 mg/mL,24%
same,Degree of hydrolysis,Na-caseinate; PepN 2 stock 0.25 mg/mL,24%
same,Degree of hydrolysis,Na-caseinate; PepN 2 stock 0.3 mg/mL,24%
same,Degree of hydrolysis,Na-caseinate; PepN 2 stock 0.35 mg/mL,27%
same,Degree of hydrolysis,Na-caseinate; [5],8%
same,product inhibition compared to TRI063 from A. oryzae,[4],less inhibited by product
